From PMC2782468 (Nature structural & molecular biology, 2009) come the findings set out here.

Assay [1] concerns the target T1, wild-type CBP80 expressed alone in insect cells (human, UniProt Q09161 1-790).
T1 sequence: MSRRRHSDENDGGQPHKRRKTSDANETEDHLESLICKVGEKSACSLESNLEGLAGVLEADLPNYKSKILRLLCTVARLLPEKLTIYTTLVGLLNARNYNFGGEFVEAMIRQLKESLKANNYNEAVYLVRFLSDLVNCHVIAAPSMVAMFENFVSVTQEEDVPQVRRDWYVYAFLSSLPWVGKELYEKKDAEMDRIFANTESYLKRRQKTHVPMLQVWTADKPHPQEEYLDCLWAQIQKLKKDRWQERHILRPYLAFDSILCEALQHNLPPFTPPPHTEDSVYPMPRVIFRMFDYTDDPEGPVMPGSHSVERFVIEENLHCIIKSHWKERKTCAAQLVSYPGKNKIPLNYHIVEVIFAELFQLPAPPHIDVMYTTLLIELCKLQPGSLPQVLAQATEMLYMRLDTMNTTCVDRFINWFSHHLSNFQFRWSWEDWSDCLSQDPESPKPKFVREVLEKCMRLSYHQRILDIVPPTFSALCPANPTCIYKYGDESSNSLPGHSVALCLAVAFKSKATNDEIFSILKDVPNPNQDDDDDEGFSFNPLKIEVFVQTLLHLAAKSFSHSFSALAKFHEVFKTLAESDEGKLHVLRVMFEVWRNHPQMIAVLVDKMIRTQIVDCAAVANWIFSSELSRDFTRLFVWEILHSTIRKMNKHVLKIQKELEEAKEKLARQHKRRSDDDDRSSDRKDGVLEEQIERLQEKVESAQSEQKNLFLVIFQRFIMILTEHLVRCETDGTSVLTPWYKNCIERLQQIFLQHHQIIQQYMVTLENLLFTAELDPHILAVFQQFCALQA
The assay can be described thus: pull-down.

For assay [2], the target named is T2, full-length human importin-β1 (human, UniProt Q14974 1-876). The assay can be described thus: native gel or EMSA.
T2 sequence (Q14974 whole entry): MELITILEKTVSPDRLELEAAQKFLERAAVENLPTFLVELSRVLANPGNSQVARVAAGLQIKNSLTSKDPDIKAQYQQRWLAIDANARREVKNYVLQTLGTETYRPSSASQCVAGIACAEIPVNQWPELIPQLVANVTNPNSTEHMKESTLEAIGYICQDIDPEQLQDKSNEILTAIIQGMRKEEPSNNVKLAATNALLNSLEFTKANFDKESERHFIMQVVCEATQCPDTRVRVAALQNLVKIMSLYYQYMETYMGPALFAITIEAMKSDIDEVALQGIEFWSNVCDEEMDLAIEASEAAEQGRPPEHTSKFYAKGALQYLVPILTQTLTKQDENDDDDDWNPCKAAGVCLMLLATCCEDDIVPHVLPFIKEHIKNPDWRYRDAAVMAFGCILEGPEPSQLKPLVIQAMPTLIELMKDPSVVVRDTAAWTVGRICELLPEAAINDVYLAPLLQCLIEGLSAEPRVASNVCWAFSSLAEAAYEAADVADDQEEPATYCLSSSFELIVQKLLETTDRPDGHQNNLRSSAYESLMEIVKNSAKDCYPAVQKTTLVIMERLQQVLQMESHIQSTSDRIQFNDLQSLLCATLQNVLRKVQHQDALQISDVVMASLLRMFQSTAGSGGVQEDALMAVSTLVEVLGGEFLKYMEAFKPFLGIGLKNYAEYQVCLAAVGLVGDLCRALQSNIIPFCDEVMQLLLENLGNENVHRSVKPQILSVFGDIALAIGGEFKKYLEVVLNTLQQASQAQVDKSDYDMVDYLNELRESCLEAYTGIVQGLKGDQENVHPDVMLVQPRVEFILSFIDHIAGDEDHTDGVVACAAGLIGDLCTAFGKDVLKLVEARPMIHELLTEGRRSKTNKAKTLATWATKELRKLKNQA
The target of assay [3] is T2, full-length human importin-β1. The assay can be described thus: pull-down.
The target in assay [4] is T3, full-length human importin-α isoform 1 (karyopherin-α2) (human, UniProt P52292 1-529). Kind of assay: pull-down.
Assay [5] has as its target T3, full-length human importin-α isoform 1 …. Kind of assay: SEC.

B1: His-tagged CBP20 Δ1–14 (domain or fragment)
chain: VELSQYRDQHFRGDNEEQEKLLKKSCTLYVGNLSFYTTEEQIYELFSKSGDIKKIIMGLDKMKKTACGFCFVEYYSRADAENAMRYINGTRLDDRIIRTDWDAGFKEGRQYGRGRSGGQVRDEYRQDYDAGRGGYGKLAQNQ
B1: the binding result in assay [1] is recorded as “binds”.

B2: CBP20 Δ1–14 (domain or fragment)
chain: B1 chain
For B2, the binding result in assay [2] is on record as “binds”.

B3: His-tagged CBP20 Δ1–14Δ126–156 (domain or fragment)
chain: VELSQYRDQHFRGDNEEQEKLLKKSCTLYVGNLSFYTTEEQIYELFSKSGDIKKIIMGLDKMKKTACGFCFVEYYSRADAENAMRYINGTRLDDRIIRTDWDAGFKEGRQY
As for B3, the binding result in assay [1] is reported as “binds”.

B4: His-tagged full-length CBP20 (natural protein)
chain: MSGGLLKALRSDSYVELSQYRDQHFRGDNEEQEKLLKKSCTLYVGNLSFYTTEEQIYELFSKSGDIKKIIMGLDKMKKTACGFCFVEYYSRADAENAMRYINGTRLDDRIIRTDWDAGFKEGRQYGRGRSGGQVRDEYRQDYDAGRGGYGKLAQNQ
Regarding B4, the binding result in assay [3] and in assay [1] was “binds” throughout.

B5: full-length CBP20 (natural protein)
chain: B4 chain
Regarding B5, in assay [2], the binding result was “binds”.

B6: apo-CBC reconstituted from His-tagged CBP20 and CBP80 (complex)
chain 1: B4 chain
chain 2: T1 sequence
In the case of B6, the binding result in assay [4] is “binds”.

B7: human nuclear cap-binding complex (CBC), CBP20 and CBP80 co-expressed (complex)
chain 1: T1 sequence
chain 2: B4 chain
Regarding B7, in assay [5], the binding result is “binds”.

B8: CBP20 Δ126–156 (domain or fragment)
chain: MSGGLLKALRSDSYVELSQYRDQHFRGDNEEQEKLLKKSCTLYVGNLSFYTTEEQIYELFSKSGDIKKIIMGLDKMKKTACGFCFVEYYSRADAENAMRYINGTRLDDRIIRTDWDAGFKEGRQY
Consider B8, for which, in assay [2], the binding result was “binds”.

B9: His-tagged CBP20 Δ126–156 (domain or fragment)
chain: B8 chain
For the molecule B9, the binding result in assay [1] is recorded as “binds”.
